Reference: patent publication US20240011101A1, “METHOD OF DETERMINING RESISTANCE TO CHECKPOINT INHIBITOR THERAPIES” (Shattuck Labs, Inc., priority 2020, published 2024)

Legend:
[1] = tested on: 4th generation anti-PD-1 resistant cells; test: RNA-seq gene expression (TPM) of 4th generation anti-PD-1 resistant CT26 cells cultured with or without IFNγ; format: cell-based, Mus musculus
Experimental: (§1) Three distinct vials of parental CT26 cells (ATCC; “experimental replicates”), two independently isolated tumors from “2nd round” mice, four independently isolated tumors from “4th round” mice (both “biological replicates”) were cultured with or without 20 ng/mL of mouse IFNγ (Biolegend) for 24 hours at […]. The following day, RNA was isolated from cells using Qiagen RNeasy reagents according to manufacturer's instructions, including QIASHREDDER homogenization and on-column DNaseI digestion. Isolated RNA was subjected to RNA-seq and data analysis. Briefly, sequencing libraries were generated and sequenced on an ILLUMINA HISEQ (2×150 paired end reads), targeting >20×10^6 reads per sample. Sequences were trimmed using TRIMMOMATIC v.0.36 and mapped to the Mus musculus GRCm38 reference genome using the STAR ALIGNER v.2.5.2b. Unique gene hit counts were calculated by using FEATURECOUNTS from the SUBREAD package v.1.5.2. Only unique reads that fell within exon regions were counted. Differential gene expression was determined using DESeq2, and the Wald test was used to generate p-values and log 2 fold changes; with log 2 fold change >1 and adjusted p-values <0.05 as cutoffs for significance.
Next the transcriptomic profile of the 2nd and 4th generation anti-PD-1 resistant cell lines was studied by comparison with each other and with an anti-PD-1 primarily resistant cell line. The B16.F10 murine melanoma tumor cell line was used as a model of anti-PD-1 “primary resistance,” as these tumors are not responsive to anti-PD-1 therapy. Three distinct vials of parental CT26 cells (ATCC; “experimental replicates”), two independently isolated tumors from “2nd round” mice, four independently isolated tumors from “4th round” mice (both “biological replicates”), and two distinct vials of parental B16.F10 cells (ATCC; “experimental replicates were cultured with or without 20 ng/mL of mouse IFNγ (Biolegend) for 24 hours at 37° C./5% CO2 to assess in vitro responsiveness. This mimics how tumor cells respond in vivo, as immune cell infiltrate and secrete effector cytokines like IFNγ. The following day, RNA was isolated from cells using Qiagen RNeasy reagents according to manufacturers instructions, including QIASHREDDER homogenization and on-column DNaseI digestion. Isolated RNA was subjected to RNA-seq and data analysis. Briefly, sequencing libraries were generated and sequenced on an ILLUMINA HISEQ (2×150 paired end reads), targeting >20×10^6 reads per sample. Sequences were trimmed using TRIMMOMATIC v.0.36 and mapped to the Mus musculus GRCm38 reference genome using the STAR ALIGNER v.2.5.2b. Unique gene hit counts were calculated by using FEATURECOUNTS from the SUBREAD package v.1.5.2. Only unique reads that fell within exon regions were counted. Differential gene expression was determined using DESeq2, and the Wald test was used to generate p-values and log 2 fold changes; with log 2 fold change >1 and adjusted p-values <0.05 as cutoffs for significance. The DEGs were identified between untreated and IFNγ treated parental CT26. As shown in FIG. 4A (Left Panel), Log 2 fold-change was plotted in the heatmap and genes are hierarchical clustered based on parental CT26. Of these, 338 genes had usable data from the other datasets; and those values are shown in the other columns (FIG. 4A (Left Panel)). Genes separated into 3 major clusters (FIG. 4A (Left Panel)). Associated genes were input into PANTHER to identify pathways associated with the dysregulated genes and the GO pathways associated with the DEGs were identified. As shown in FIG. 4A (Right Panel), the upregulation of expression of the genes associated with following GO pathways was enriched in 2nd generation cells and 4th generation cells compared to both parental CT26 cells and B16.F10 cells: L-phenyl alanine catabolic process, phospholipid efflux, tyrosine catabolic process, positive regulation of transcription from RNA polymerase II promoter in response to acidic pH, and drug export. […]

wild type CT26 cells = test: RNA-seq gene expression (TPM) of wild type CT26 cells cultured with or without IFNγ; format: cell-based; details: 20 ng/mL mouse IFNγ, 24 hours, vs without IFNγ
Experimental: as §1
Next, the effect of IFNγ on the expression of certain genes that are differentially expressed in the 4th generation anti-PD-1 resistant cells compared to the wild type CT26 cells was studied. Briefly, the parental CT26 cells, second generation anti-PD-1 resistant cells and 4th generation anti-PD-1 resistant cells were cultured with or without 20 ng/mL of mouse IFNγ (Biolegend) for 24 hours at 37° C./[…]. The following day, RNA was isolated from cells using Qiagen RNeasy reagents according to manufacturer's instructions, including QIASHREDDER homogenization and on-column DNaseI digestion. Isolated RNA was subjected to RNA-seq and data analysis. Briefly, sequencing libraries were generated and sequenced on an ILLUMINA HISEQ (2×150 paired end reads), targeting >20×10^6 reads per sample. Sequences were trimmed using TRIMMOMATIC v.0.36 and mapped to the Mus musculus GRCm38 reference genome using the STAR ALIGNER v.2.5.2b. Unique gene hit counts were calculated by using FEATURECOUNTS from the SUBREAD package v.1.5.2. Only unique reads that fell within exon regions were counted. Differential gene expression was determined using DESeq2, and the Wald test was used to generate p-values and log 2 fold changes; with log 2 fold change >1 and adjusted p-values <0.05 as cutoffs for significance.

B1: IFNγ: mouse IFNγ (Biolegend), cytokine added to cell cultures at 20 ng/mL for 24 hours (protein, UniProt P01580 23-155, looked up)
Interferon gamma: HGTVIESLESLNNYFNSSGIDVEEKSLFLDIWRNWQKDGDMKILQSQIISFYLRLFEVLKDNQAISNNISVIESHLITTFFSNSKAKKDAFMSIAKFEVNNPQVQRQAFNELIRVVHQLLPESSLRKRKRSRC
downregulate: expression of type I and type II interferon genes (baseline hyperactivated) ([1]; CT26 anti-PD-1 resistant cells challenged with IFNγ (20 ng/mL, 24 hours), FIG. 4B)
overexpressed: expression of Trim7 ([1]; in response to IFNγ (20 ng/mL, 24 hours), FIG. 5C) | expression of Lrg1 ([1]; in response to IFNγ (20 ng/mL, 24 hours), FIG. 5D)
increased: expression of Cd274 (PD-L1) (wild type CT26 cells; FIG. 5A) | expression of B2M (wild type CT26 cells; FIG. 5B) | expression of Trim7 (wild type CT26 cells; FIG. 5C) | expression of Lrg1 (wild type CT26 cells; FIG. 5D) | expression of Stat1 (wild type CT26 cells; FIG. 7A) | expression of Stat2 (wild type CT26 cells; FIG. 7B) | expression of Irf1 (wild type CT26 cells; FIG. 7C) | expression of Tap1 (wild type CT26 cells; FIG. 7D) | expression of Ccl5 (RANTES) (wild type CT26 cells; FIG. 9A) | expression of Cxcl10 (IP-10) (wild type CT26 cells; FIG. 9B) | expression of Ifnb1 (wild type CT26 cells; FIG. 9C)
repressed: expression of CD274 ([1]; in the presence of IFNγ (20 ng/mL, 24 hours), FIG. 5A) | expression of B2m ([1]; in the presence of IFNγ (20 ng/mL, 24 hours), FIG. 5B) | expression of Stat1 ([1]; in the presence of IFNγ (20 ng/mL, 24 hours), FIG. 7A) | expression of Stat2 ([1]; in the presence of IFNγ (20 ng/mL, 24 hours), FIG. 7B) | expression of Irf1 ([1]; in the presence of IFNγ (20 ng/mL, 24 hours), FIG. 7C) | expression of Tap1 ([1]; in the presence of IFNγ (20 ng/mL, 24 hours), FIG. 7D) | expression of Ccl5 (RANTES) ([1]; in the presence of IFNγ (20 ng/mL, 24 hours), FIG. 9A) | expression of Cxcl10 (IP-10) ([1]; in the presence of IFNγ (20 ng/mL, 24 hours), FIG. 9B) | expression of Ifnb1 ([1]; in the presence of IFNγ (20 ng/mL, 24 hours), FIG. 9C)
